Laboratory results reported in paper PMC9482650, “Quantitative fragmentomics allow affinity mapping of interactomes” (Nature Communications, 2022).

Key:
Test in all cases: holdup assay
Parameters in all cases: key: below the threshold = too weak to quantify, mostly under pKd 3.1 to 4
ARHGEF11, O15085 = target: T1, ARHGEF11, O15085
T1 sequence (O15085 42-136, limits assumed, looked up): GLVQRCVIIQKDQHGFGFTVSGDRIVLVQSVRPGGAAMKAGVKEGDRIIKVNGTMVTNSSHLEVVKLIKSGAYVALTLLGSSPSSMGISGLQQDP

NHERF3_3, Q5T2W1 = target: T2, NHERF3_3, Q5T2W1
T2 sequence (Q5T2W1 238-333, limits assumed, looked up): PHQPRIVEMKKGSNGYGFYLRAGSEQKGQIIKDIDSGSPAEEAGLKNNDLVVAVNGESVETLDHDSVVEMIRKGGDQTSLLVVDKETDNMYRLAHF

MPP7, Q5T2T1 = target: T3, MPP7, Q5T2T1
T3 sequence (Q5T2T1 134-230, limits assumed, looked up): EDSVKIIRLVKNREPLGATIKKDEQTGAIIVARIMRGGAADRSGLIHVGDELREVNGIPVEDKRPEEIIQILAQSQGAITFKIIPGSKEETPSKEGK

GRIP2_4, Q9C0E4 = target: GRIP2_4, Q9C0E4
GIPC2, Q8TF65 = target: GIPC2, Q8TF65
SYNJ2BP, P57105 = target: T4, SYNJ2BP, P57105
T4 sequence (P57105 8-110, limits assumed, looked up): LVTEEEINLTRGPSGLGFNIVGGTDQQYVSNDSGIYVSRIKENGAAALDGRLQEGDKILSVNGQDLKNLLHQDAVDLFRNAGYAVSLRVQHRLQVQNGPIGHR

IL16_4, Q14005 = target: IL16_4, Q14005
APBA2_2, Q99767 = target: T5, APBA2_2, Q99767
T5 sequence (Q99767 654-744, limits assumed, looked up): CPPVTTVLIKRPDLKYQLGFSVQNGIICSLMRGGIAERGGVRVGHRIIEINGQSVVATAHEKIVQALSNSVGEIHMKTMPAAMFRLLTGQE

PTPN13_1, Q12923 = target: T6, PTPN13_1, Q12923
T6 sequence (Q12923 1088-1188, limits assumed, looked up): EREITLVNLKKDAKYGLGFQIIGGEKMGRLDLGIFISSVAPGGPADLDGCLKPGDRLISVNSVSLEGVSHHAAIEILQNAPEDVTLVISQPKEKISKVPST

MAGI1_1, Q96QZ7 = target: MAGI1_1, Q96QZ7
Inadl_4, Q8NI35 = target: Inadl_4, Q8NI35
SNX27, Q96L92 = target: SNX27, Q96L92
DLG4_2, P78352 = target: DLG4_2, P78352
Inadl_2, Q8NI35 = target: Inadl_2, Q8NI35
GRIP1_2, Q9Y3R0 = target: T7, GRIP1_2, Q9Y3R0
T7 sequence (Q9Y3R0 145-248, limits assumed, looked up): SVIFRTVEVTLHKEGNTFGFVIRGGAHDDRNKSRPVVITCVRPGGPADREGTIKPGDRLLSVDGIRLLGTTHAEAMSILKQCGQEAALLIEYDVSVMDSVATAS

APBA1_2, Q02410 = target: T8, APBA1_2, Q02410
T8 sequence (Q02410 742-832, limits assumed, looked up): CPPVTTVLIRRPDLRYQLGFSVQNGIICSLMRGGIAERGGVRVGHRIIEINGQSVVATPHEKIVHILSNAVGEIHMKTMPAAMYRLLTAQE

SNTG1, Q9NSN8 = target: T9, SNTG1, Q9NSN8
T9 sequence (Q9NSN8 52-150, limits assumed, looked up): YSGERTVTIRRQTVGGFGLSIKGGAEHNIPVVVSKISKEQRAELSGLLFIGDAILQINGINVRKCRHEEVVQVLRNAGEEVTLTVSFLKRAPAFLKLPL

DLG4_1, P78352 = target: DLG4_1, P78352
LNX2_2, Q8N448 = target: T10, LNX2_2, Q8N448
T10 sequence (Q8N448 334-432, limits assumed, looked up): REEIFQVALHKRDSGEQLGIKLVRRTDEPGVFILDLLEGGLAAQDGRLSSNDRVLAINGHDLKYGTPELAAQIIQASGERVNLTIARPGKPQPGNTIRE

LIN7A, O14910 = target: T11, LIN7A, O14910
T11 sequence (O14910 103-200, limits assumed, looked up): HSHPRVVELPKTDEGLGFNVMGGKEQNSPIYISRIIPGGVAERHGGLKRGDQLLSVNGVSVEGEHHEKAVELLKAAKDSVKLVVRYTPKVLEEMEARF

PDZRN4_1, Q6ZMN7 = target: PDZRN4_1, Q6ZMN7
NOS1, P29475 = target: NOS1, P29475
PARD3_3, Q8TEW0 = target: PARD3_3, Q8TEW0
Inadl_8, Q8NI35 = target: Inadl_8, Q8NI35
PICK1, Q9NRD5 = target: PICK1, Q9NRD5
SNTA1, Q13424 = target: T12, SNTA1, Q13424
T12 sequence (Q13424 82-180, limits assumed, looked up): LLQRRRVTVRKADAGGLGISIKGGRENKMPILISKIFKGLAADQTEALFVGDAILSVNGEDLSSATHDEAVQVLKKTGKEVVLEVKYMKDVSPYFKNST

[1] = plain residues with an end cap or a label only (N-terminal biotin on a linker: ado-ado)
[2] = plain residues with an end cap or a label only (N-terminal biotin on a linker: ttds)
[3] = plain residues with an end cap or a label only (N-terminal biotin on a linker: none)
[4] = plain residues with an end cap or a label only (N-terminal biotin on a linker: ahx)

Inadl_2, Q8NI35, sequence (Q8NI35 238-335): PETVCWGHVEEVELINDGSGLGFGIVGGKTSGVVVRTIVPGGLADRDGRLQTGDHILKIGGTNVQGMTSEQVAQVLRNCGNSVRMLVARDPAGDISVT
Inadl_8, Q8NI35, sequence (Q8NI35 1425-1530): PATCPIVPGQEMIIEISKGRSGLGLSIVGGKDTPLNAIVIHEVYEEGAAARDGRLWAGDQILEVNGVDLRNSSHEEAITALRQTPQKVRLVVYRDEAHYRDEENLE
GIPC2, Q8TF65, sequence (Q8TF65 112-203): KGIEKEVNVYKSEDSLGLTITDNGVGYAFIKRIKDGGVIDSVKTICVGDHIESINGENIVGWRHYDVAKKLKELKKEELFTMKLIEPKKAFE
Inadl_4, Q8NI35, sequence (Q8NI35 547-651): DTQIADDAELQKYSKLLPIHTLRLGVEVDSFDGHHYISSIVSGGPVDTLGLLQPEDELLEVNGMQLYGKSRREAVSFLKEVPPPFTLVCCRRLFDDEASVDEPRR
MAGI1_1, Q96QZ7, sequence (Q96QZ7 1-106): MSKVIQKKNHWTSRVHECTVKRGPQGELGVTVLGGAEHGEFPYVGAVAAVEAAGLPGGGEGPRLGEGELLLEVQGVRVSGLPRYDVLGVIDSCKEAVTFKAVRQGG
NOS1, P29475, sequence (P29475 9-101): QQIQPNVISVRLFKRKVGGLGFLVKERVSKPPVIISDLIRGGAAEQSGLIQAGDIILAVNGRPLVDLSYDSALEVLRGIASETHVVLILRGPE
DLG4_1, P78352, sequence (P78352 62-152): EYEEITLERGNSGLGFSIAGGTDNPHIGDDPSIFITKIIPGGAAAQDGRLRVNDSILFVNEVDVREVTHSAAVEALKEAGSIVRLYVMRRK
PARD3_3, Q8TEW0, sequence (Q8TEW0 582-685): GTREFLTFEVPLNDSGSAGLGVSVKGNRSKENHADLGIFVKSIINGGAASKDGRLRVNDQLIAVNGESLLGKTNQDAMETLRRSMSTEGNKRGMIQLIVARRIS
DLG4_2, P78352, sequence (P78352 155-259): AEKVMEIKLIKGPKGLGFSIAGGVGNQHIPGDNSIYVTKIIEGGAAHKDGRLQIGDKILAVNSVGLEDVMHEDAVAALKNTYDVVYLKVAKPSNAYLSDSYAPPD
PDZRN4_1, Q6ZMN7, sequence (Q6ZMN7 213-318): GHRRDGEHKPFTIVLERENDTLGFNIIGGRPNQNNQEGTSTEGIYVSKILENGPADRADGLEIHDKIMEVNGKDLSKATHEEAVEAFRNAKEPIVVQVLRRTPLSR
IL16_4, Q14005, sequence (Q14005 1229-1329): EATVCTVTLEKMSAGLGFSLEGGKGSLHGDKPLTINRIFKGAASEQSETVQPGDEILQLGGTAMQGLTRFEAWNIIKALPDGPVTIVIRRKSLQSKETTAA
PICK1, Q9NRD5, sequence (Q9NRD5 17-115): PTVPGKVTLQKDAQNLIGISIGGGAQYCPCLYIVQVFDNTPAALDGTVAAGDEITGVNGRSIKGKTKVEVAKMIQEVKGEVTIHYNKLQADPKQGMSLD
GRIP2_4, Q9C0E4, sequence (Q9C0E4 446-548): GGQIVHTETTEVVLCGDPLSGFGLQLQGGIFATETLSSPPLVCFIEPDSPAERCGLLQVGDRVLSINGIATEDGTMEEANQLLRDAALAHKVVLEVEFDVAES

QKNKDKEYYV [NRXN3_rs746444206, Q9Y4C0]
pKd (ARHGEF11, O15085; [1]): 3.95
pKd (NHERF3_3, Q5T2W1; [1]): below the threshold
pKd (MPP7, Q5T2T1; [1]): 4.79
pKd (GRIP2_4, Q9C0E4; [1]): below the threshold
pKd (GIPC2, Q8TF65; [1]): below the threshold
pKd (SYNJ2BP, P57105; [1]): below the threshold
pKd (IL16_4, Q14005; [1]): below the threshold
pKd (APBA2_2, Q99767; [1]): below the threshold
pKd (PTPN13_1, Q12923; [1]): below the threshold
pKd (MAGI1_1, Q96QZ7; [1]): below the threshold
pKd (Inadl_4, Q8NI35; [1]): below the threshold
pKd (SNX27, Q96L92; [1]): below the threshold
pKd (DLG4_2, P78352; [1]): 3.56
pKd (Inadl_2, Q8NI35; [1]): 4.92
pKd (GRIP1_2, Q9Y3R0; [1]): below the threshold
pKd (APBA1_2, Q02410; [1]): 4.02
pKd (SNTG1, Q9NSN8; [1]): 3.53
pKd (DLG4_1, P78352; [1]): below the threshold
pKd (LNX2_2, Q8N448; [1]): 4.7
pKd (LIN7A, O14910; [1]): below the threshold
pKd (PDZRN4_1, Q6ZMN7; [1]): below the threshold
pKd (NOS1, P29475; [1]): 3.88
pKd (PARD3_3, Q8TEW0; [1]): 4.48
pKd (Inadl_8, Q8NI35; [1]): below the threshold
pKd (PICK1, Q9NRD5; [1]): below the threshold
pKd (SNTA1, Q13424; [1]): 3.78

TGDTLEKFVEGL [CBP, Q92793]
pKd (ARHGEF11, O15085; [2]): below the threshold
pKd (NHERF3_3, Q5T2W1; [2]): below the threshold
pKd (MPP7, Q5T2T1; [2]): below the threshold
pKd (GRIP2_4, Q9C0E4; [2]): below the threshold
pKd (GIPC2, Q8TF65; [2]): below the threshold
pKd (SYNJ2BP, P57105; [2]): 3.55
pKd (IL16_4, Q14005; [2]): below the threshold
pKd (APBA2_2, Q99767; [2]): below the threshold
pKd (PTPN13_1, Q12923; [2]): below the threshold
pKd (MAGI1_1, Q96QZ7; [2]): below the threshold
pKd (Inadl_4, Q8NI35; [2]): below the threshold
pKd (SNX27, Q96L92; [2]): below the threshold
pKd (DLG4_2, P78352; [2]): below the threshold
pKd (Inadl_2, Q8NI35; [2]): below the threshold
pKd (GRIP1_2, Q9Y3R0; [2]): below the threshold
pKd (APBA1_2, Q02410; [2]): below the threshold
pKd (SNTG1, Q9NSN8; [2]): below the threshold
pKd (DLG4_1, P78352; [2]): 3.54
pKd (LNX2_2, Q8N448; [2]): below the threshold
pKd (LIN7A, O14910; [2]): below the threshold
pKd (PDZRN4_1, Q6ZMN7; [2]): below the threshold
pKd (NOS1, P29475; [2]): below the threshold
pKd (PARD3_3, Q8TEW0; [2]): below the threshold
pKd (Inadl_8, Q8NI35; [2]): below the threshold
pKd (PICK1, Q9NRD5; [2]): below the threshold
pKd (SNTA1, Q13424; [2]): below the threshold

DSKPPLPPDEWV [MERS-E, K9N5R3]
pKd (ARHGEF11, O15085; [3]): 3.91
pKd (NHERF3_3, Q5T2W1; [3]): below the threshold
pKd (MPP7, Q5T2T1; [3]): below the threshold
pKd (GRIP2_4, Q9C0E4; [3]): below the threshold
pKd (GIPC2, Q8TF65; [3]): below the threshold
pKd (SYNJ2BP, P57105; [3]): 3.73
pKd (IL16_4, Q14005; [3]): below the threshold
pKd (APBA2_2, Q99767; [3]): below the threshold
pKd (PTPN13_1, Q12923; [3]): below the threshold
pKd (MAGI1_1, Q96QZ7; [3]): below the threshold
pKd (Inadl_4, Q8NI35; [3]): below the threshold
pKd (SNX27, Q96L92; [3]): 4.56
pKd (DLG4_2, P78352; [3]): 3.59
pKd (Inadl_2, Q8NI35; [3]): below the threshold
pKd (GRIP1_2, Q9Y3R0; [3]): 3.62
pKd (APBA1_2, Q02410; [3]): 4.59
pKd (SNTG1, Q9NSN8; [3]): 3.87
pKd (DLG4_1, P78352; [3]): 3.62
pKd (LNX2_2, Q8N448; [3]): 4.44
pKd (LIN7A, O14910; [3]): below the threshold
pKd (PDZRN4_1, Q6ZMN7; [3]): 3.49
pKd (NOS1, P29475; [3]): 3.99
pKd (PARD3_3, Q8TEW0; [3]): 4.07
pKd (Inadl_8, Q8NI35; [3]): 3.55
pKd (PICK1, Q9NRD5; [3]): below the threshold
pKd (SNTA1, Q13424; [3]): below the threshold

RGGFGRQTQI [NCBP2L, A6PVI3]
pKd (ARHGEF11, O15085; [1]): below the threshold
pKd (NHERF3_3, Q5T2W1; [1]): below the threshold
pKd (MPP7, Q5T2T1; [1]): below the threshold
pKd (GRIP2_4, Q9C0E4; [1]): below the threshold
pKd (GIPC2, Q8TF65; [1]): below the threshold
pKd (SYNJ2BP, P57105; [1]): 4.18
pKd (IL16_4, Q14005; [1]): below the threshold
pKd (APBA2_2, Q99767; [1]): below the threshold
pKd (PTPN13_1, Q12923; [1]): 3.71
pKd (MAGI1_1, Q96QZ7; [1]): below the threshold
pKd (Inadl_4, Q8NI35; [1]): below the threshold
pKd (SNX27, Q96L92; [1]): below the threshold
pKd (DLG4_2, P78352; [1]): 4.64
pKd (Inadl_2, Q8NI35; [1]): below the threshold
pKd (GRIP1_2, Q9Y3R0; [1]): below the threshold
pKd (APBA1_2, Q02410; [1]): below the threshold
pKd (SNTG1, Q9NSN8; [1]): below the threshold
pKd (DLG4_1, P78352; [1]): 4.25
pKd (LNX2_2, Q8N448; [1]): below the threshold
pKd (LIN7A, O14910; [1]): below the threshold
pKd (PDZRN4_1, Q6ZMN7; [1]): below the threshold
pKd (NOS1, P29475; [1]): 4.08
pKd (PARD3_3, Q8TEW0; [1]): below the threshold
pKd (Inadl_8, Q8NI35; [1]): 3.49
pKd (PICK1, Q9NRD5; [1]): below the threshold
pKd (SNTA1, Q13424; [1]): 4.2

HSGSYLVTSV [APC, P25054]
pKd (ARHGEF11, O15085; [4]): 4.59
pKd (NHERF3_3, Q5T2W1; [4]): below the threshold
pKd (MPP7, Q5T2T1; [4]): below the threshold
pKd (GRIP2_4, Q9C0E4; [4]): below the threshold
pKd (GIPC2, Q8TF65; [4]): below the threshold
pKd (SYNJ2BP, P57105; [4]): 4.81
pKd (IL16_4, Q14005; [4]): below the threshold
pKd (APBA2_2, Q99767; [4]): below the threshold
pKd (PTPN13_1, Q12923; [4]): below the threshold
pKd (MAGI1_1, Q96QZ7; [4]): below the threshold
pKd (Inadl_4, Q8NI35; [4]): below the threshold
pKd (SNX27, Q96L92; [4]): 5.52
pKd (DLG4_2, P78352; [4]): 4.98
pKd (Inadl_2, Q8NI35; [4]): below the threshold
pKd (GRIP1_2, Q9Y3R0; [4]): below the threshold
pKd (APBA1_2, Q02410; [4]): 4.03
pKd (SNTG1, Q9NSN8; [4]): 4.23
pKd (DLG4_1, P78352; [4]): 4.38
pKd (LNX2_2, Q8N448; [4]): 4.56
pKd (LIN7A, O14910; [4]): below the threshold
pKd (PDZRN4_1, Q6ZMN7; [4]): below the threshold
pKd (NOS1, P29475; [4]): 3.68
pKd (PARD3_3, Q8TEW0; [4]): below the threshold
pKd (Inadl_8, Q8NI35; [4]): 4.84
pKd (PICK1, Q9NRD5; [4]): below the threshold
pKd (SNTA1, Q13424; [4]): 3.64
